Assay results taken from publication PMC9482650, “Quantitative fragmentomics allow affinity mapping of interactomes” (Nature Communications, 2022).

Assays:
Test in all cases: holdup assay
Set-up in all cases: key: below the threshold = too weak to quantify, mostly under pKd 3.1 to 4
ARHGEF12, Q9NZN5-2 = molecular target: ARHGEF12, Q9NZN5-2
CASK, O14936 = molecular target: CASK, O14936
DFNB31_1, Q9P202 = molecular target: T1, DFNB31_1, Q9P202
T1 sequence (Q9P202 135-233, limits assumed, looked up): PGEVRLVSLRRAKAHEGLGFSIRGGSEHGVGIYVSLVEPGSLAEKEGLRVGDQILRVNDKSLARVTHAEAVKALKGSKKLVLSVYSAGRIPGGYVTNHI

DLG3_3, Q92796 = molecular target: T2, DLG3_3, Q92796
T2 sequence (Q92796 374-475, limits assumed, looked up): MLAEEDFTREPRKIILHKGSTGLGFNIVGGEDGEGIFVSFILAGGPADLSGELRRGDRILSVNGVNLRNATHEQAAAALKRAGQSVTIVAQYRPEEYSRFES

FRMPD4, Q14CM0 = molecular target: FRMPD4, Q14CM0
GRASP, Q7Z6J2 = molecular target: GRASP, Q7Z6J2
GRID2IP_2, A4D2P6 = molecular target: GRID2IP_2, A4D2P6
GRIP1_4, Q9Y3R0 = molecular target: T3, GRIP1_4, Q9Y3R0
T3 sequence (Q9Y3R0 467-571, limits assumed, looked up): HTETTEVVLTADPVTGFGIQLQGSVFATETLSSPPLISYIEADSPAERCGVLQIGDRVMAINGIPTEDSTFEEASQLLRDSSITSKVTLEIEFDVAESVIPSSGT

IL16_1, Q14005 = molecular target: IL16_1, Q14005
Inadl_9, Q8NI35 = molecular target: Inadl_9, Q8NI35
LDB3, O75112 = molecular target: LDB3, O75112
LNX1_1, Q8TBB1 = molecular target: LNX1_1, Q8TBB1
LNX2_2, Q8N448 = molecular target: T4, LNX2_2, Q8N448
T4 sequence (Q8N448 334-432, limits assumed, looked up): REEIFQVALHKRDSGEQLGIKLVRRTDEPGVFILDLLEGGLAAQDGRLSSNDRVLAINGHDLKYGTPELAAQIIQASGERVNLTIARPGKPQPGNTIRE

MAGI1_1, Q96QZ7 = molecular target: MAGI1_1, Q96QZ7
MAGI2_6, Q86UL8 = molecular target: MAGI2_6, Q86UL8
MPP2, Q14168 = molecular target: T5, MPP2, Q14168
T5 sequence (Q14168 180-250, limits assumed, looked up): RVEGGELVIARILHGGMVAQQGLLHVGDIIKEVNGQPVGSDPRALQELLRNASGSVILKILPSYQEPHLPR

NHERF2_2, Q15599 = molecular target: NHERF2_2, Q15599
NHERF4_1, Q86UT5-2 = molecular target: NHERF4_1, Q86UT5-2
NHERF4_2, Q86UT5 = molecular target: NHERF4_2, Q86UT5
PARD3B_1, Q8TEW8 = molecular target: T6, PARD3B_1, Q8TEW8
T6 sequence (Q8TEW8 196-299, limits assumed, looked up): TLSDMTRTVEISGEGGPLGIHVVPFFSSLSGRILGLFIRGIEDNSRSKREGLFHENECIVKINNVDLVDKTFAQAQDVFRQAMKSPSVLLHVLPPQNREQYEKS

PDZD7_3, Q9H5P4 = molecular target: T7, PDZD7_3, Q9H5P4
T7 sequence (Q9H5P4 857-944, limits assumed, looked up): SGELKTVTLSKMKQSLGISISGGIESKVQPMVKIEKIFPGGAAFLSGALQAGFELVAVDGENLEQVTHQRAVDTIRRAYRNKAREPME

PTPN13_1, Q12923 = molecular target: T8, PTPN13_1, Q12923
T8 sequence (Q12923 1088-1188, limits assumed, looked up): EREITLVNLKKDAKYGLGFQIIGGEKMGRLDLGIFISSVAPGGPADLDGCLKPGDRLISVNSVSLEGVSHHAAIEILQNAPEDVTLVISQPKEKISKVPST

SCRIB_3, Q14160 = molecular target: SCRIB_3, Q14160
SHANK1, Q9Y566 = molecular target: T9, SHANK1, Q9Y566
T9 sequence (Q9Y566 658-767, limits assumed, looked up): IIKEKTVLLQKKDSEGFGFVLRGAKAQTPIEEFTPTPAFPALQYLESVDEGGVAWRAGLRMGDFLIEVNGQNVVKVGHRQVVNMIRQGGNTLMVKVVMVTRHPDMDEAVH

SIPA1L2, Q9P2F8 = molecular target: T10, SIPA1L2, Q9P2F8
T10 sequence (Q9P2F8 945-1036, limits assumed, looked up): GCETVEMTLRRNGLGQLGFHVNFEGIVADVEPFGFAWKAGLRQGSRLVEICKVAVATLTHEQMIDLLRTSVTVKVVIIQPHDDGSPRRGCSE

SNTG2, Q9NY99 = molecular target: T11, SNTG2, Q9NY99
T11 sequence (Q9NY99 68-166, limits assumed, looked up): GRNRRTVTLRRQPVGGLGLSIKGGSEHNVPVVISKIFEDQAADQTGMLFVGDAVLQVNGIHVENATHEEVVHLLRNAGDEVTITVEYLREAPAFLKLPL

[1] = plain residues with an end cap or a label only (N-terminal biotin on a linker: ado-ado)
[2] = modified: phospho on T at position -2 from the C-terminal residue

Measured: pKd

Sequence of LDB3, O75112 (O75112 1-94): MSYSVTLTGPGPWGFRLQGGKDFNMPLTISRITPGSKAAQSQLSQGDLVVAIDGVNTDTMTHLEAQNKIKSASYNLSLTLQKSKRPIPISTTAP
Sequence of NHERF4_2, Q86UT5 (Q86UT5 220-308): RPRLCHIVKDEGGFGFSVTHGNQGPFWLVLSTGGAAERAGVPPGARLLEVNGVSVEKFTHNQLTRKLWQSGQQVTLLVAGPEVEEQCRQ
Sequence of CASK, O14936 (O14936 487-570): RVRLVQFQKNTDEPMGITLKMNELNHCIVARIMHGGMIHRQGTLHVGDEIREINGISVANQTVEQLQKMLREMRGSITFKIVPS
Sequence of NHERF2_2, Q15599 (Q15599 142-238): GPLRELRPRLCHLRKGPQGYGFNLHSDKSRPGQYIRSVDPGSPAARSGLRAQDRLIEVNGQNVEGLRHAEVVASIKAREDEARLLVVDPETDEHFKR
Sequence of MAGI2_6, Q86UL8 (Q86UL8 1141-1229): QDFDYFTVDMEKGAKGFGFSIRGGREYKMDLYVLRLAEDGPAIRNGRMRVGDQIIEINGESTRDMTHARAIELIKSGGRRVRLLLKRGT
Sequence of GRID2IP_2, A4D2P6 (A4D2P6 272-370): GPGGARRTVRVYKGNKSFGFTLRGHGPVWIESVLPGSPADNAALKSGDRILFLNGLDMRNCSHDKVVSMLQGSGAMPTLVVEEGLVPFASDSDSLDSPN
Sequence of IL16_1, Q14005 (Q14005 210-306): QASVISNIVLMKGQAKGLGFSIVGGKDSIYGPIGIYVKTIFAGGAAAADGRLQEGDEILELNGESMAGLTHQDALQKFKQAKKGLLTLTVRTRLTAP
Sequence of Inadl_9, Q8NI35 (Q8NI35 1530-1615): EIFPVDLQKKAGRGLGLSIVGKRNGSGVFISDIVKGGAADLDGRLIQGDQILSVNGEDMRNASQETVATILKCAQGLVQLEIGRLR
Sequence of GRASP, Q7Z6J2 (Q7Z6J2 96-193): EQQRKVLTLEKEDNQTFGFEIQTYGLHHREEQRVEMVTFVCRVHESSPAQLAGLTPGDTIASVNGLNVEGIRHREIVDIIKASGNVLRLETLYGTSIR
Sequence of ARHGEF12, Q9NZN5-2 (Q9NZN5 other isoform, or with tags, fused parts or gaps): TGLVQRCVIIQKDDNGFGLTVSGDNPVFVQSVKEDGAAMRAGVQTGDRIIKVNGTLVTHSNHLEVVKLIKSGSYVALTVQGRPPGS
Sequence of SCRIB_3, Q14160 (Q14160 999-1103): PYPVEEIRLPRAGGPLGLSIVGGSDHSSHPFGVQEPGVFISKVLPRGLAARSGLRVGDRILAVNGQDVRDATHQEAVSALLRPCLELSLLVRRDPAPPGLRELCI
Sequence of NHERF4_1, Q86UT5-2 (Q86UT5 other isoform, or with tags, fused parts or gaps): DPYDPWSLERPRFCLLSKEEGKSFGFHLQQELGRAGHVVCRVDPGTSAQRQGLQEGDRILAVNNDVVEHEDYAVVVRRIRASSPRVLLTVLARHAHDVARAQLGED
Sequence of LNX1_1, Q8TBB1 (Q8TBB1 261-371): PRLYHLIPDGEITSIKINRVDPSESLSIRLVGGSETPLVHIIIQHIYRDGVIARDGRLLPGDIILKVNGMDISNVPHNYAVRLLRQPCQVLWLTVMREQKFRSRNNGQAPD
Sequence of FRMPD4, Q14CM0 (Q14CM0 67-160): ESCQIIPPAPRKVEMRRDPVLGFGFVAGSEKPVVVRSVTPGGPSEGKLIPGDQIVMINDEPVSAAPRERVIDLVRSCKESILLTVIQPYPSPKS
Sequence of MAGI1_1, Q96QZ7 (Q96QZ7 1-106): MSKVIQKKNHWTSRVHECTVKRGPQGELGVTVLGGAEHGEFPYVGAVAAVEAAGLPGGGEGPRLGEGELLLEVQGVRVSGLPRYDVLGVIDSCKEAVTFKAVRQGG

PRISRSQSEL [CCDC134, Q9H6E4]
4.27: ARHGEF12, Q9NZN5-2; [1]
3.67: LNX1_1, Q8TBB1; [1]
4.06: SCRIB_3, Q14160; [1]
3.86: NHERF4_1, Q86UT5-2; [1]
4.31: GRASP, Q7Z6J2; [1]
3.61: GRID2IP_2, A4D2P6; [1]
below the threshold: CASK, O14936; [1] | DFNB31_1, Q9P202; [1] | DLG3_3, Q92796; [1] | FRMPD4, Q14CM0; [1] | GRIP1_4, Q9Y3R0; [1] | IL16_1, Q14005; [1] | Inadl_9, Q8NI35; [1] | LDB3, O75112; [1] | LNX2_2, Q8N448; [1] | MAGI1_1, Q96QZ7; [1] | MAGI2_6, Q86UL8; [1] | MPP2, Q14168; [1] | NHERF2_2, Q15599; [1] | NHERF4_2, Q86UT5; [1] | PARD3B_1, Q8TEW8; [1] | PDZD7_3, Q9H5P4; [1] | PTPN13_1, Q12923; [1] | SHANK1, Q9Y566; [1] | SIPA1L2, Q9P2F8; [1] | SNTG2, Q9NY99; [1]

QPCFNKLFPL [LPXN, O60711]
below the threshold: CASK, O14936; [1] | DFNB31_1, Q9P202; [1] | DLG3_3, Q92796; [1] | GRASP, Q7Z6J2; [1] | GRID2IP_2, A4D2P6; [1] | GRIP1_4, Q9Y3R0; [1] | IL16_1, Q14005; [1] | Inadl_9, Q8NI35; [1] | LDB3, O75112; [1] | LNX1_1, Q8TBB1; [1] | LNX2_2, Q8N448; [1] | MAGI2_6, Q86UL8; [1] | MPP2, Q14168; [1] | NHERF2_2, Q15599; [1] | NHERF4_1, Q86UT5-2; [1] | NHERF4_2, Q86UT5; [1] | PDZD7_3, Q9H5P4; [1] | PTPN13_1, Q12923; [1] | SCRIB_3, Q14160; [1] | SHANK1, Q9Y566; [1] | SIPA1L2, Q9P2F8; [1] | SNTG2, Q9NY99; [1]
4.64: FRMPD4, Q14CM0; [1]
3.56: ARHGEF12, Q9NZN5-2; [1]
3.74: MAGI1_1, Q96QZ7; [1]
3.75: PARD3B_1, Q8TEW8; [1]

RLQRRRETQV [HPV18-E6_-2P, P06463]
3.52: DLG3_3, Q92796; [2]
below the threshold: ARHGEF12, Q9NZN5-2; [2] | CASK, O14936; [2] | DFNB31_1, Q9P202; [2] | FRMPD4, Q14CM0; [2] | GRASP, Q7Z6J2; [2] | GRID2IP_2, A4D2P6; [2] | GRIP1_4, Q9Y3R0; [2] | IL16_1, Q14005; [2] | Inadl_9, Q8NI35; [2] | LDB3, O75112; [2] | LNX1_1, Q8TBB1; [2] | LNX2_2, Q8N448; [2] | MAGI1_1, Q96QZ7; [2] | MAGI2_6, Q86UL8; [2] | MPP2, Q14168; [2] | NHERF2_2, Q15599; [2] | NHERF4_2, Q86UT5; [2] | PARD3B_1, Q8TEW8; [2] | PDZD7_3, Q9H5P4; [2] | PTPN13_1, Q12923; [2] | SCRIB_3, Q14160; [2] | SHANK1, Q9Y566; [2] | SIPA1L2, Q9P2F8; [2] | SNTG2, Q9NY99; [2]
3.6: NHERF4_1, Q86UT5-2; [2]

SSALYGESDL [ACTN2, P35609]
3.91: SHANK1, Q9Y566; [1]
3.6: DLG3_3, Q92796; [1]
3.86: LNX1_1, Q8TBB1; [1]
4.06: ARHGEF12, Q9NZN5-2; [1]
4.4: LDB3, O75112; [1]
3.88: NHERF4_1, Q86UT5-2; [1]
4.35: NHERF2_2, Q15599; [1]
5.1: SCRIB_3, Q14160; [1]
3.93: GRASP, Q7Z6J2; [1]
below the threshold: CASK, O14936; [1] | DFNB31_1, Q9P202; [1] | FRMPD4, Q14CM0; [1] | GRID2IP_2, A4D2P6; [1] | GRIP1_4, Q9Y3R0; [1] | IL16_1, Q14005; [1] | Inadl_9, Q8NI35; [1] | LNX2_2, Q8N448; [1] | MAGI1_1, Q96QZ7; [1] | MPP2, Q14168; [1] | NHERF4_2, Q86UT5; [1] | PARD3B_1, Q8TEW8; [1] | PDZD7_3, Q9H5P4; [1] | PTPN13_1, Q12923; [1] | SIPA1L2, Q9P2F8; [1] | SNTG2, Q9NY99; [1]
5.05: MAGI2_6, Q86UL8; [1]
